Absorbance data for one substance are collected here from article PMC9333307.

The target of this test is Urtica dioica agglutinin (Urtica dioica (stinging nettle)). In words: ELISA; microwells coated with serial dilutions (1:2 to 1:16) of UDA in PBS at 4°C overnight; blocked with 0.3% skim milk; 0.5 μg.mL recombinant RBD added for 1 h at RT; detected with rabbit anti-his antibodies and HRP-conjugated secondary antibody, TMB, absorbance at 450 nm; wells without UDA as negative control. Also noted: unit not given here. For orientation: An ELISA detects its analyte on a solid surface through an enzyme-linked reagent.

As for “recombinant receptor-binding domain (RBD) of SARS-CoV-2 Spike protein (from UniProt P0DTC2 319-541) (domain or fragment)”, the absorbance at 450 nm came to 420.
